According to publication PMC10425327:

Biological target: T1, complement C5a receptor (mouse (endogenous in Peyer's patch LysoDCs)) (UniProt P30993)
T1 sequence: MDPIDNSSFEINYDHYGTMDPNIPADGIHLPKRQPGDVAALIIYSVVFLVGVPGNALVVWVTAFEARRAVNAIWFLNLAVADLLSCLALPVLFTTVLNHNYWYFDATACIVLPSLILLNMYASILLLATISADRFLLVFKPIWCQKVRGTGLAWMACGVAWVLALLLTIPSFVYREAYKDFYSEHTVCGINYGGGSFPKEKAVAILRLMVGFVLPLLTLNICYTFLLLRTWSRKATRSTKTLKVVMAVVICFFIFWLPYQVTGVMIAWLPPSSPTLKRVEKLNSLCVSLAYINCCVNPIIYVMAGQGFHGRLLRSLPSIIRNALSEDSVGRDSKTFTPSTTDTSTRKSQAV

Binder: SFHQLPARSPLP [Co1 peptide]
- CCL2 (MCP-1) in the culture supernatant of C5aR+ LysoDCs treated with Co1 peptide (10 uM, 24 h), against untreated C5aR+ LysoDCs and Co1-treated C5aR- LysoDCs: > 2 fold
- CCL3 (MIP-1alpha) in the culture supernatant of C5aR+ LysoDCs treated with Co1 peptide (10 uM, 24 h), against untreated C5aR+ LysoDCs and Co1-treated C5aR- LysoDCs: > 2 fold
